{
  "source": "ChEMBL document CHEMBL3856203",
  "about": "“β-Lactamases: Why and How” (J Med Chem, 2016)",
  "substrate": "CC(C)(O/N=C(\\C(=O)N[C@@H]1C(=O)N2C(C(=O)[O-])=C(C[n+]3ccccc3)CS[C@H]12)c1csc(N)n1)C(=O)O",
  "test": "Substrate activity at Enterobacter cloacae beta lactamase P99 expressed in Escherichia coli AS226-51 cells by UV spectrophotometric method",
  "data": [
    {"protein": "Beta-lactamase (Enterobacter cloacae), P05364 (protein) MMRKSLCCALLLGISCSALATPVSEKQLAEVVANTITPLMKAQSVPGMAVAVIYQGKPHYYTFGKADIAANKPVTPQTLFELGSISKTFTGVLGGDAIARGEISLDDAVTRYWPQLTGKQWQGIRMLDLATYTAGGLPLQVPDEVTDNASLLRFYQNWQPQWKPGTTRLYANASIGLFGALAVKPSGMPYEQAMTTRVLKPLKLDHTWINVPKAEEAHYAWGYRDGKAVRVSPGMLDAQAYGVKTNVQDMANWVMANMAPENVADASLKQGIALAQSRYWRIGSMYQGLGWEMLNWPVEANTVVEGSDSKVALAPLPVAEVNPPAPPVKASWVHKTGSTGGFGSYVAFIPEKQIGIVMLANTSYPNPARVEAAYHILEALQ", "values": [
      {"measurement": "kcat", "result": 7, "unit": "×10⁻³ /s"}
    ]}
  ]
}
